From publication PMC8945002, “Pseudomonas aeruginosa Bacterioferritin Is Assembled from FtnA and BfrB Subunits with the Relative Proportions Dependent on the Environmental Oxygen Availability” (Biomolecules, 2022)

B1: Bfr containing only BfrB subunits (24-mer BfrB) isolated from P. aeruginosa (natural protein)
chain: not shown
notes: BfrB, bacterioferritin subunit of P. aeruginosa PAO1, gene PA3531; subunit mass 18,552 Da by LC-MS; 24 copies hold for the homooligomer (SPR target, self rows); in the rows with m3 it stands for the BfrB subunits of the heterooligomeric 24-mer Bfr; also called homooligomeric BfrB; Bfr (0% FtnA, 21% O2); source: purified from P. aeruginosa PAO1 or ΔftnA cells (Q Sepharose, hydroxyapatite, Superdex …)

How the values were obtained:
[1] = biological target: the molecule itself; assay: SEC; Superdex 200 Increase 10/300 GL, 100 mM phosphate buffer pH 7.6, 1 mM TCEP; pure Bfr from P. aeruginosa; elution volume compared with a ferritin standard
[2] = biological target: B1; assay: SPR; Biacore X100, 25 °C; Bfr or FtnArec immobilised on CM5 chips by amine coupling (100 nM in 10 mM sodium acetate pH 5.0); Bfd 0-40 μM flowed at 5 µL/min in PBS pH 7.4 with 1 mM TCEP; steady-state analysis, steric factor n set to 0.91; settings: both partners purified
[3] = biological target: T1, heterooligomeric 24-mer Bfr containing ~45% FtnA, isolated from PAO1 cells cultured in 2% O2 (P. aeruginosa PAO1 (endogenous), UniProt Q9HY79 1-158; Q9HWF9 1-154); assay: as above; settings: both partners purified
T1 construct: BfrB subunit of P. aeruginosa PAO1, gene PA3531; 18,552 Da; ~55% of the 24 subunits; FtnA subunit of P. aeruginosa PAO1, gene PA4235; 17,940 Da; ~45% of the 24 subunits; 24 subunits in all; a population of molecules of varying composition, on average ~45% FtnA; heme in the BfrB dimers; also called heterooligomeric Bfr; Bfr 45 (2% O2); source: purified from P. aeruginosa PAO1 cultured in 2% O2 (Q …)
T1 sequence (Q9HY79 whole entry, chain 1 of 2, one chain of several): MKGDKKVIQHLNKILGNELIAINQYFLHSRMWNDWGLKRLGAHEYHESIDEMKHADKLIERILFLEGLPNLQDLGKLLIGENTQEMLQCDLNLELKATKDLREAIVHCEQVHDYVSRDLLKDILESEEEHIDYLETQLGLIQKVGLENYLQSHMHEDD

[4] = biological target: the molecule itself; assay: native gel or EMSA; lysates of PAO1, ΔftnA and ΔbfrB cells (21%, 10%, 2% O2 or anaerobic) on native PAGE, stained for iron with Ferene S; BfrBrec and FtnArec as mobility standards; bands excised, digested with trypsin and identified by LC-MS

## B1
[1]
  stoichiometry N: 24

B2: bacterioferritin-associated ferredoxin (Bfd) (natural protein, P. aeruginosa, UniProt Q9HY80 1-73, looked up)
chain: MYVCLCQGVTDNQIRDAIYEGCCSYREVREATGVGTQCGKCACLAKQVVRETLNDLQSAQPVPAFGTTAFVAA
notes: Bfd, the bacterioferritin-associated [2Fe-2S] ferredoxin of P. aeruginosa, product of the bfd gene next to bfrB; Holds a [2Fe-2S] cluster
[2]
  Kd: 4.7 ± 0.8 µM
[3]
  Kd: 4.3 ± 0.5 µM

B3: FtnA subunit of P. aeruginosa (endogenous) (natural protein, P. aeruginosa PAO1 (endogenous), UniProt Q9HWF9 1-154, looked up)
chain: MQGHPEVIDYLNTLLTGELAARDQYFIHSRMYEDWGFSKLYERLNHEMEEETQHADALLRRILLLEGTPRMRPDDIHPGTTVPEMLEADLKLERHVRAALAKGIALCEQHKDFVSRDILKAQLADTEEDHAYWLEQQLGLIARMGLENYLQSQI
notes: FtnA, bacterial ferritin subunit of P. aeruginosa PAO1, gene PA4235 (formerly annotated bfrA); subunit mass 17,940 Da by LC-MS; Found in PAO1 only as a subunit of heterooligomeric Bfr; as 24-mer FtnA only in lysates of ΔbfrB cells cultured in 2% O2 or anaerobically; also called bacterial ferritin; formerly BfrA; source: purified from P. aeruginosa PAO1 as part of Bfr (Q Sepharose, hydroxyapatite, …)
[4]
  stoichiometry N: 24
